The source of these data is the DeepSol protein solubility set.

The series can be described thus: soluble on expression in E. coli; label from the status in PepcDB or PDB records.
With “MQVLSEATPMTNGEVYALLRRRRDERNAARHPPFGLQPVLADSHQRAAVATGAAAATAVAPSAPASASAISRAASVMSHNSVGQHSGSKAAPAGAIESAASAAAASTASILASPSSVHLVVLLTEVTMLNYIANHSSLLLESARPTPAGVRVRTCTPRDVYGPTSVYNRVVGTEGRSDAAVGASATAAGSLLDAELVSSCYAKLASHRPGTRGHVRGVEELLEHFEEVGRAQERLYAAGVRRAVQQLWRRRLWVPAEGLYPPPSPPFATTAPSLSNGSALVKAEPVAEEDVDGTAEAVQRLSQDKAARQSGAGETNHDAEGAQPTNASHLVTPLLLEPTPLWGPAARNGGGKGSVDGGAATASMAHSPLSYHVQLQLQQASRSLLSEAEVLQLVVGRPQRALDVYRLLDDVDDRLQYREEAVNAFVEAVTGVFAE”, the “soluble on expression in E. coli” value is given as “not soluble”. As to “MSLEQCYTDVTEFAIPASTQKLYLSPVLDGFNSEIIAYNLSTSPNLEQVQTMLEQAFTEKHYENTILHSDQGWQYQHDSYHQFLEGKGIQASMSRKGNSQDNGMMESFFGILKSEMFYGYEKTFKSLNQLEQAIVDYIDYYNNKRIKVKLKGLSPVQYRTKSFGEGHHHHHH”, the “soluble on expression in E. coli” value is on record as “soluble”.

On to “MDVNVNIDTNAEKQAISPYIYGTNQDFSNAKVTARRIGGNRSTGYNWENNDSNAGTDWKNESDNYWLTLYDVPKEKYNEPASVYTAFHDKSLAMGVPYSLVTLQAGGYVAADQSGPLANTDVAPSSKWKKVEFNKNGPLSLTPDTTDGSVYMDEFVNYLVNKYGSASGSKGIKGYSLDNEPSLWPSTHPLIHPDKTKCSEVLDKDTQLAQVVKKIDPAAETFGPALFGFSAFNDFNSSPDWSSVKGNYQWFIDYYLDNMKKNSDAAGKRLLDALDLHWYPEAKGGGQRVTTSDTSNVDCNKARMQAPRSLWDSTYTEDSWIGQWCKWGLPLIPKVKSSIDKYYPGTKLSFSEYNYGGEDHISGGIAQADALGVFGKYGVYFATYWECNSDKNNYVQSAFNLYNNYDGNNSKYGDTDVKCDTSDINNSSTYASVTSNDGNKMDIIVMNKNYTDSINFNFNVSSNKNYTSGQVWGFDSNSSNITKRDDVSSISGNKFTYKIPALTAVHIVLLEHHHHHH”, for which the “soluble on expression in E. coli” value is recorded as “soluble”. Take “EEATSKGQNLNVEKINGEWFSILLASDKREKIEEHGSMRVFVEHIHVLENSLAFKFHTVIDGECSEIFLVADKTEKAGEYSVMYDGFNTFTILKTDYDNYIMFHLINEKDGKTFQLMELYGRKADLNSDIKEKFVKLCEEHGIIKENIIDLTKTNRCLKARE”: the “soluble on expression in E. coli” value is “soluble”. Consider “AIAVGHKYPVKCLEVDKSKGRLVVSHRRAMAERQMEHLKTGALVEGTVQGVKPYGVFVDVFGTSGLLHISQISHDQVANIQSLFLPGEKVKCMVVSFDKQRGRISLSTKALEPHPGDMLRNKQLVYEKAEEMALSYNQRMDSPVRSKNTTSSSTDDIIAGLDIGSLDDLDPILFGTHTNSSNSNTHSDHLKQDSMNGTIPESDI”, for which the “soluble on expression in E. coli” value is “soluble”. Take “MGSDKIHHHHHHMKVALRKTIGERLLELAKQDEKIVVVTSDARGSAAIADFFKVFPERSIEVGIAEQTAAGVAAGLALCGKKAWVFGPACFYSARNLEQIKNDIAYSDANVKIVAVSGGVSYGPLGSTHHALHDVAVMRAIPNLKVLLPSDAVLAAAILEQLLKDEKPVYMRTGRNPVPVIYSRDEKFEVGRAITLKEGNDITIIATGEVVWRALEAAKILEKEGISARVIDMFTVKPLDEEAVFRAARETGRIVTVEEHSIFGGLGGAVAEFLSQNLPTPMKILGIPDEYPVTGTQDEVLKHYGLAPEGIAKTVLEWFKEGN”: the “soluble on expression in E. coli” value is given as “not soluble”. With “EVRLVSLRRAKAHEGLGFSIRGGSEHGVGIYVSLVEPGSLAEKEGLRVGDQILRVNDKSLARVTHAEAVKALKGSKKLVLSVYSAGRI”, the “soluble on expression in E. coli” value is “soluble”. Regarding “AHHHHHHGSLKLSDFIPLTMLREGETGVVVDIQSGVNARGKLLSMGITPGVRVRMIKSRKPGPVIIGIGSSKIALGWGIASKIIVRRE”, the “soluble on expression in E. coli” value is listed as “not soluble”. In the case of “MAKTIRDESTASAYWAAVNTFCALKDVHVIADAPVGCYNLAGVAVMDYTDAIPYLENLTPTSLTEREISSSGSSQIVQETIEKLMGSGKQLILVSSAESEMIGSDHQHMLAMKYPSVRFFASDSLGENEWQGRDRALAWLFDQFDDGQPSQIEPGTVSIIGPTYGCFNSPADLAEVKRLVTGAGGRVAHVYPFESKAAEITKLKNSAAIVVMYREFGAALAEKLGRPVLYAPFGIEETDRFIGKIGRLCGTPEQATRFIAEEKRTTLSPVWDLWRGPQSEWFPTIRFGVVASKSYADGIKHVLGDELGMQCLFSLDSAEVDNNAVRKEIVQKQPQFLYGRMPDKIYLAEADAKSRFIPAGFPGPIVRRALGTPFMGHSGVVWLVQEIVNALYDTLFNFLPITRRQQAAAPTKPLKWTPEANAILDGIVRKAPFISQISFGRELKRKAENLAASRGADTVTPDILQQLG”, the “soluble on expression in E. coli” value is given as “soluble”. As for “MGSDKIHHHHHHMRRGGTAFSSKCKICGKAAPFSLPVCPECSKKDAALEIATSLHPPLYEKRVEGCNLCSNKCSGIALCGKPEYGKLTYYEDPLPTNCCNAWFCNGSKLTGTNLAVFYYGCNFDCLYCQNWTHKYFEDVRTVSVDELLRAAKNFRVRCVCHFGGSPEPQLPFALKFSRKALEFKEDLMICWEWNGAGNTSLALKAAELSSRSGGTVKFDLKAWNPNLHVLLTGRDNERVKDNFERIYDKHGEVLSATTLLVPYYVDEEEVEGIARFISSFSTEIPYSLLVFHPDYRMSDFPVTPVQQVKRCYKAAKKHLKNVNIGNLHLLGL”, the “soluble on expression in E. coli” value was “not soluble”. Then “MAISQFFEKIDRYYQKNLKEYEFSEEYSDISFNTFLYLRKINSLGNPTMSELAKAMEVSKPSASNMVSKMTEKGLVETGASPKDGRVCLLGLTDKGKKVIEIENGADMKFFEKIREILDEEELEVLERIFEKIAAGLEGEKHDR”, with “not soluble”; and “MNVIEGVVATPNARVAIAIARFNNFINDSLLDGAIDALKRIGQVSDDNITVVWVPGAYELPLVANVLAKTNRYDAVIALGTVIRGGTAHFEYVAGEASSGLSSVAMNSDIPVAFGVLTTESIEQAIERAGTKAGNKGAEAALTALEMINVIKAIKG”, with “not soluble”; and “SEAMFCDFPKINHGILYDEEKYKPFSQVPTGEVFYYSCEYNFVSPSKSFWTRITCAEEGWSPTPKCLRLCFFPFVENGHSESSGQTHLEGDTVQIICNTGYRLQNNENNISCVERGWSTPPKCRSTISAEKCGPPPPIDNGDITSFLLSVYAPGSSVEYQCQNLYQLEGNNQITCRNGQWSEPPKCLDPCVISQEIMEKYNIKLKWTNQQKLYSRTGDIVEFVCKSGYHPTKSHSFRAMCQNGKLVYPSCEEK”, with “soluble”. As to “IPNDILIVNPEAQGLVDGHKVIVKITKYPEGRMSAEGEVISILGHKNDPGMDILSIIYKYGIPQAFPEEVLQQAQNIPDEIDAGEIKNRRDLRDEPLVTIDGADAKDLDDAVHVSRLPNGNFKLGVHIADVSYYVKEKSPIDLEAAERGTSVYLVDRVIPMIPHRLSNGICSLNPQVDRLTLSCEMEITRDGQVVNHEIFQSVIRTNERMTYHDVNKILVEKEEELRNRYELLVPMFEDMEELAAILRKKRFGRGAIDFDFKEAKVLVDEEGKPSDVVIRERGVAEKLIEEFMLAANETVAEHFHWLKLPFMYRIHEDPDSEKLGRFLEFITNFGYVVRGTANTVHPRALQKLLEEVRGEPEEQVISTVMLRSMQQAK”, the “soluble on expression in E. coli” value is on record as “not soluble”. In the case of “GPGSMERTPTARIRDVIDSQLALRSSGFLPGNSTPDQLLHLRAAVHRNAPQHRTAAYFVDHANAFGTVGPDAVILEMRRLSIPNRIARWSAACLNSTSAVVCIDKLTPSSRTLTRGAPQGTVLAPIMFVVVMQSRCSCPSNVPYFAEGSSLMTALSPHSRATGMRSTRPQKKA”, the “soluble on expression in E. coli” value is “not soluble”. Turning to “MGSDKIHHHHHHMLWFKNLMIYRLSQDSVLSKDNVLSTDEMEKRLSAFAFTPCGSQDMMKTGWVSPMGSHSDALTHVVNGQIVICVRKEEKILPSPVIKQTLQAKIERLEAEQHRKLKKTEKDSLKDEVLHSLLPRAFSRLSQVWLWIDTVNGLIMVDAASAKKAEDTLALLRKTLGSLPVVPLTMENPIELTLTEWVRSGEPAAGFALQDEAELKAILEDGGVIRCKKQDLVCDEIAVHIEAGKLVTKLALDWQERIQLILSDDGSVKRLKFSDTLREQNDDIDREDFAQRFDADFILMTSELAALIANLIEALGGEAQR”, the “soluble on expression in E. coli” value is “not soluble”. “MQVQRAITRNLAKANGYFNKTFKPPTVNYTVRGLKAGVAYLQQNQIRFNPILLQENGQAFIQQVIPHELAHILVFQQFGHVLPHGKEWQMMMEQVLGTSAEVYHTFNTQNVAGQQFAYICACQTHLLSIRLHNAILKNKRQYICKQCKQVLYYKDVLANYSNNTKKLEHHHHHH”: the “soluble on expression in E. coli” value is “not soluble”. Take “MVKRNKVIKQQSCPLIDTINVISRKWLLLVLNTIGNEGKLGFNSILNSIDDISPKALSDVLKTMEEMGLVKKVIVKSSPPRVEYSLTYEGKKLRKAVIPLFKWAAEHTGHYECPILQSNKLNKEEYS”: the “soluble on expression in E. coli” value is “soluble”. As to “MGSDKIHHHHHHACTDDSNDVVATTSEVIEQAEVPFSVVLKAMNSDGNDITTKGEVNGATLFVFDQNNDFFEQINVNKSTILSRRAIDINCPNSNDITVIAWSGINSGNEEISNMSKANIISDLQVSLKENNGIANIPSDLFYGQVTLHKNSSTKSTVSNELQIIRKTSIFQLSTKGLIKYLGSNAGNFEYRIKNTKSSLDYNGNPTGEEVEFAFPASFDEKGNLTTETQAIFPAQNITVELYKDGNLIFSSEKDKNGELFAATPGKRTEITFKYSGEVSANITIADWATVIQHITMN”, the “soluble on expression in E. coli” value is listed as “not soluble”.

As to “EHLRLDNDQREKYIQEARNMGSTIRQPKLSNLSPSVIAQTNWKFVEGLLKECRNKTKRMLVEKMGREAVELGHGEVNITGVEENTLIASLCDLLERIWSHGLQVKQGKSALWSHLLHYQENRQRKLTSGSLSTSGILLDSERRKSDASAVMSPLRISLIQDMRHIQNIGEIKTDVGKARAWVRLSMEKKLLSRHLKQLLSDHELTKKLYKRYAFLRCDDEKEQFLYHLLSFNAVDYFCFTNVFTTILIPYHILIVPSKKLGGSMFTANPWICISGELGETQILQIPRNVLEMTFECQNLGKLTTVQIGHDNSGLYAKWLVECVMVRNEVTGHTYKFPCGRWLGKGMDDGSLERVLVGELLTSLPEVDERPCRTPPLQQSPSVIR”, the “soluble on expression in E. coli” value was “soluble”. On to “MKVDVEVLRNFEERLNPAKPENIKIIGYGEISTVFELPELPGIALKRIPNFKSVEQVKRYIEVYFEYIELLEGAGLRVPDSDATFVERRDGKTVLYIAQKMVGNVGNKVIQTAKADEAEEVFGRVLAEMKKVWDFNAERREEGLEIGIDGQISNWAIMEEIYYFDTSTPMIRKNGIHQLDTEVFLQACPPGIRILLKKIFLQDILDRYFDFRKVVVDMIANLYKEGREDLIPIAINLANEFFKLNGYDFEAITAKEVEKYYKEDAFIWSLYLNLRKVHRFILTKALFGRYEYILPGKIRR”, for which the “soluble on expression in E. coli” value is recorded as “not soluble”. Turning to “MGCVGAGADAEGREARKVNKQIEEQLAKDKQVMRATHRLLLLGAGESGKSTIVKQMRILHINGFNEAEKREKITDIRRNVRDAMQVILRAMDEIVPKVSLDDPSTAISRDYILRITNDPEDNYPSEFYDHILTCWKDKGVMACYERSSEYQLIDCAQYFLDKVDVVRQNNYDPSEQDILRCRVMTTGIFETKFEVDKVRFHMFDVGGQRDERRKWIQCFNDVTAIIFVCASSSYNLVLWEDNTQNRLRESLALFKNIWNNRWLKTISVILFLNKQDLLSEKIKAKRYLLESFFPEFEGYNLPNDAVFDNQEDKDVVRAKYFIRGEFLRISTANSDGRHHCYPHFTCAVDTENIRRVFNDCRDIIQRIHLRQYELL”, the “soluble on expression in E. coli” value is listed as “not soluble”. As for “MMDNNITETEMKVGHPPANKVGGRRVVNRKDRKNSDSNDNANSEGSDEVVREIIDYDLPAKMERSYPTEAVKKVHEKPMPAIQPVHINRDANSGVHRFQPRKQTH”, the entry is “soluble”.
